Laboratory results from patent US12539289B2, “Phorbol ester compositions and methods of use for treating or reducing the duration of cytopenia” (BIOSUCCESS BIOTECH CO., LTD., priority 2014, dated 2026).

Experiments:
[1] = test system: Drug Induced Cytopenia; experiment: Drug induced cytopenia treated by TPA: blood cell counts after DNR + Ara-C; type: in vivo, mice; conditions: n = 10
Experimental: Ninety (90) adult mice were randomly assigned to 9 groups (10 mice per group). No drug was administered in Control group. Model group was given DNR (6 mg/kg)+Ara-C (150 mg/kg) on Day 0. The rest of the 7 groups were given DNR (6 mg/kg)+Ara-C (150 mg/kg) on Day 0, and each group on Day 7, Day 8, and Day 9 was administered with one of the following drugs: G-CSF (10 μg/kg), EPO (500 IU/kg), TPA (12.5 μg/kg), TPA (25 μg/kg), TPA (50 μg/kg), TPA (12.5 μg/kg)+GCSF (10 μg/kg), or TPA (12.5 μg/kg)+EPO (500 IU/kg).

[2] = test system: bone marrow stromal cells (BMSCs) from patients of AML in the bone marrow suppression phase; experiment: BMSC proliferation or inhibition, CCK8 method, AML patients; type: cell-based, human
Experimental: (§1) To explore the effect of TPA alone or combined rhG-CSF on bone marrow hematopoietic cells proliferation and colony formation ability which from patients of acute myeloid leukemia (AML) in the period of bone marrow suppression in vitro and to observe the effect of TPA on bone marrow stromal cells(BMSCs) proliferation or inhibition from patients of AML in the period of myelosuppression and the healthy persons.
(§2) • 1) Human bone marrow cells from the same AML patient after chemotherapy were cultured by methyl cellulose semi-solid culture medium. Groups: Blank, TPA (10 ng/ml), G-CSF (50 ng/ml), TPA (10 ng/ml)+GCSF (50 ng/ml). The experiments were repeated for 4 times. • 2) The stroma cells of bone marrow from the healthy human and the AML patient after chemotherapy were cultured by methyl cellulose semi-solid culture medium. Different TPA concentrations were added. Groups: Blank, TPA (0.1 ng/ml), TPA (1.0 ng/ml), TPA (5 ng/ml), TPA (10 ng/ml), TPA (20 ng/ml), TPA (30 ng/ml). • 3) Cultivation of BMSCs from healthy persons and patients of AML in the bone marrow suppression phase in vitro, added to TPA of different concentrations, 0.1 ng/ml, 1.0 ng/ml, 5 ng/ml, 10 ng/ml, 20 ng/ml, 30 ng/ml, and set up a control to detect cell proliferation or inhibition with CCK8 method. Results and Conclusion: • 1. […]

[3] = test system: bone marrow stromal cells (BMSCs) from healthy persons; experiment: BMSC proliferation or inhibition, CCK8 method, healthy persons; type: cell-based, human; conditions: healthy persons
Experimental: as §1, §2

[4] = test system: neutropenia; experiment: Duration of neutropenia after high dose chemotherapy; type: in vivo; conditions: stated 'for example'
From the text: For example, the duration of neutropenia after high dose chemotherapy and treatment with GCSF is, for example, about 24±3 days. The combination of TPA and GCSF reduces the duration of neutropenia to about 15±3 days, or about a 25% to 50% reduction in the duration of neutropenia.

[5] = test system: neutropenia and thrombocytopenia; experiment: AML (M2) patient case after DA regimen chemotherapy; type: in vivo, human
Experimental: Patient, diagnosed with AML (M2). Patient's bone marrow myeloblast plus promyelocyte count was about 60%. After they received one standard course of DA regimen (7 Ara C+3 Daunorubicin), their peripheral WBC count dropped to 0.8×10^9/L. They were then administered 150 μg G-CSF each day. After chemotherapy, it took 12 days (duration of neutropenia and thrombocytopenia) to bring both their platelet count and WBC count, including the neutrophil count, back to normal. Their bone marrow myeloblast plus promyelocyte count was about 40%, still way above the normal value (0˜5%). Then, they received their second standard course of DA regimen. After the second course of DA regimen, their peripheral WBC count and platelet count dropped to 0.6×10^9/L and 80×10^9/L respectively. They were then administered TPA plus G-CSF (150 μg TPA followed with 150 μg G-CSF) each day of day 1 and day 2. On day 4 and day 5, they were administered with only 150 μg TPA each day. The WBC counts and neutrophil percentage* in parenthesis were 1.8×10^9/L (39%) on day 3, 6.5×10^9/L (72%) on day 7, and 5.7×10^9/L (77%) on day 14. The estimated duration of neutropenia after chemotherapy was shortened to about 5 days. The platelet counts were 330×10^9/L on day 3, 715×10^9/L on day 7, and 568×10^9/L on day 14. The estimated duration of thrombocytopenia after chemotherapy was shortened to less than 3 days. […]

[6] = test system: Human bone marrow cells from the same AML patient after chemotherapy; experiment: Colony formation of bone marrow hematopoietic cells in methyl cellulose semi-solid culture medium; type: cell-based
Experimental: as §1
• 1) Human bone marrow cells from the same AML patient after chemotherapy were cultured by methyl cellulose semi-solid culture medium. Groups: Blank, TPA (10 ng/ml), G-CSF (50 ng/ml), TPA (10 ng/ml)+GCSF (50 ng/ml). The experiments were repeated for 4 times. • 2) The stroma cells of bone marrow from the healthy human and the AML patient after chemotherapy were cultured by methyl cellulose semi-solid culture medium. Different TPA concentrations were added. Groups: Blank, TPA (0.1 ng/ml), TPA (1.0 ng/ml), TPA (5 ng/ml), TPA (10 ng/ml), TPA (20 ng/ml), TPA (30 ng/ml). • 3) Cultivation of BMSCs from healthy persons and patients of AML in the bone marrow suppression phase in vitro, added to TPA of different concentrations, 0.1 ng/ml, 1.0 ng/ml, 5 ng/ml, 10 ng/ml, 20 ng/ml, 30 ng/ml, and set up a control to detect cell proliferation or inhibition with CCK8 method. Results and Conclusion: • 1. Compared the clones of four groups in incomplete medium, in the control group a small cell clusters can be seen for 24-72 hours, but the cells were dead as time prolong. Cultivated 14 days, control group have no clones formation, CFU-GM are dominated for G-CSF group, TPA alone and combination with G-CSF group have myeloid colony formation, while BFU-E and CFU-GEMM. […] Compared the clones of different concentration of TPA stimulation in incomplete medium, the total clones of 5 ng/ml, 10 ng/ml, 20 ng/ml group are higher than other groups, including 10 ng/ml in the highest, there are statistical significance (both P<0.05). While decreasing or increasing TPA concentration can not improve the colony number. The better concentration of TPA to stimulate the colony formation is 5˜20 ng/ml. […] Compared the clones of different concentration of TPA and G-CSF (50 ng/ml) stimulation in incomplete medium. Combination with G-CSF the better concentration of TPA is 1˜10 ng/ml (both P<0.05). Combination with G-CSF the best concentration of TPA is 5 ng/ml and 1 ng/ml. for CFU-GM and CFU-GEMM. The main clone types are myeloid colones, CFU-GM, also have CFU-GEMM and fewer BFU-E. • 4. […] While TPA group and G-CSF group the number of clones of TPA group and G-CSF group have no statistical significance (P=0.577). • 5. […] Meanwhile, TPA promote bone marroe stromal cells from the AML patients proliferation of concentration 5˜30 ng/ml (cell number 2×10^5/ml). 5 ng/ml of TPA is the best concentration of promoting proliferation, and G-CSF had no effect on the growth of BMSCs from healthy persons or AML patients.

[7] = 8 days after DNR + Ara-c, 1 day after 1st dose, G-CSF 10, EPO 500, TPA 12.5, TPA + GCSF 12.5 + 10, TPA + EPO 12.5 + 500 (μg·kg^−1)
[8] = 9 days after DNR + Ara-c, 1 day after 2nd dose, G-CSF 10, EPO 500, TPA 12.5, TPA + GCSF 12.5 + 10, TPA + EPO 12.5 + 500 (μg·kg^−1)
[9] = 10 days after DNR + Ara-c, 1 day after 3rd dose, G-CSF 10, EPO 500, TPA 12.5, TPA + GCSF 12.5 + 10, TPA + EPO 12.5 + 500 (μg·kg^1)

Molecule: EPO: erythropoietin, a glycoprotein hormone that controls erythropoiesis, or red blood cell production
- PLT [1, 7]: 385 ± 19.28^(1)(1)(2)(2) ×10^9/L
- RBC [1, 7]: 7.32 ± 0.10^(1)(1)(2)(2) ×10^12/L
- WBC [1, 7]: 3.7 ± 0.69^(1)(1) ×10^9/L
- PLT [1, 8]: 935 ± 43.57^(1)(1)(2)(2) ×10^9/L
- RBC [1, 8]: 6.75 ± 0.69^(1)(1)(2) ×10^12/L
- WBC [1, 8]: 5.52 ± 0.34^(1)(1) ×10^9/L
- PLT [1, 9]: 1469 ± 75.67^(2)(2) ×10^9/L
- RBC [1, 9]: 8.51 ± 0.86^(1)(1)(2)(2)(3)(3) ×10^12/L
- WBC [1, 9]: 6.45 ± 0.41^(3)(3) ×10^9/L

B1: G-CSF: granulocyte-colony stimulating factor, a glycoprotein that stimulates the bone marrow to produce granulocytes and stem cells (protein, UniProt P09919 31-207, looked up)
Granulocyte …: TPLGPASSLPQSFLLKCLEQVRKIQGDGAALQEKLVSECATYKLCHPEELVLLGHSLGIPWAPLSSCPSQALQLAGCLSQLHSGLFLYQGLLQALEGISPELGPTLDTLQLDVADFATTIWQQMEELGMAPALQPTQGAMPAFASAFQRRAGGVLVASHLQSFLEVSYRVLRHLAQP
- effect on the growth of BMSCs [2]: had no effect
- effect on the growth of BMSCs [3]: had no effect
- PLT [1, 7]: 373 ± 76.27^(1)(1)(2)(2) ×10^9/L
- RBC [1, 7]: 4.94 ± 0.42^(1)(1) ×10^12/L
- WBC [1, 7]: 5.3 ± 0.62^(1)(2)(2) ×10^9/L
- PLT [1, 8]: 949 ± 65.88^(1)(1)(2)(2) ×10^9/L
- RBC [1, 8]: 5.40 ± 0.46^(1)(1) ×10^12/L
- WBC [1, 8]: 6.95 ± 0.44^(2) ×10^9/L
- PLT [1, 9]: 1456 ± 91.76^(2)(2) ×10^9/L
- RBC [1, 9]: 5.30 ± 0.34^(1)(1) ×10^12/L
- WBC [1, 9]: 9.14 ± 0.67^(1)(1)(2)(2) ×10^9/L
- duration of neutropenia [4]: about 24±3 days
- bone marrow myeloblast plus promyelocyte count ([5]; after first DA course and 150 μg G-CSF each day): about 40%
- duration of neutropenia and thrombocytopenia ([5]; after first DA course, 150 μg G-CSF each day): 12 days
- colony types whose formation is promoted (CFU-GM, CFU-GEMM, BFU-E) ([6]; bone marrow of AML patients in the period of bone marrow suppression, in vitro): promoted the formation of CFU-GM, but had no effect on CFU-GEMM and BFU-E
- total number of clones ([6]; incomplete medium, cultivated 14 days, TPA 10 ng/ml, G-CSF 50 ng/ml): higher than control group
